In the supplement of paper PMC12764529:
± gives the half width of the 95% confidence interval.

What was measured:
[1] = folding stability dG unfold from trypsin proteolysis; higher = more stable
Outline: (§1)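 Bayesian fitting of sequencing counts gave K50 for each design. Unfolding free energy followed by setting this against a sequence-predicted unfolded-state K50 and a shared folded-state K50, either per protease or with trypsin and chymotrypsin combined. The designs, under 80 residues and lacking cysteine, were digested in a PA-tagged cDNA display format at 11 threefold-diluted protease concentrations and without protease, and only those with AlphaFold2 dimer inter-PAE above 15 were kept.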

[2] = folding stability dG unfold from chymotrypsin proteolysis; higher = more stable
Outline: as §1

[3] = folding stability dG unfold (combined trypsin and chymotrypsin); higher = more stable
Outline: as §1

Sequence | folding stability dG unfold [1] [kcal/mol] | folding stability dG unfold [2] [kcal/mol] | folding stability dG unfold [3] [kcal/mol]
SAGGSAGGSAGGSPLPGQPPEVILIKLDKPVKVGQTITLPDGYKLEVNEETGYLLIVKTSAGGSAGGSAGGS [r4_78_TrROS_Hall] | 0.705 ± 0.05 | 0.992 ± 0.081 | 0.843 ± 0.051
SAGGSAGGSAGGSPLVIKVDGPAEKLIEEIKKLFPNAKVLSIETHPDGGVTLVVEKIDESAGGSAGGSAGGS [r4_95_TrMRF] | 1.38 ± 0.07 | 2.35 ± 0.069 | 2.03 ± 0.15
SAGGSAGGSAGGSPNPLLPPVRPKVILKDPKTGTTKTFTTEEEAKKAVESGEYTVLKIESAGGSAGGSAGGS [r10_520_JUSTAS] | -0.0844 ± 0.066 | 0.353 ± 0.11 | 0.217 ± 0.058
SAGGSAGGSAGGSPPNMEPVETQEYQIGNDFIIKVDTYRMPDPDMYFVDIEITPDALKASAGGSAGGSAGGS [r4_163_TrROS] | 0.82 ± 0.12 | 1.82 ± 0.17 | 1.28 ± 0.3
SAGGSAGGSAGGSSDIVVTSETLPGPTRLVRITIPEKGETIELTLPASESIEQAVALLLSAGGSAGGSAGGS [r4_393_JUSTAS] | 0.253 ± 0.1 | 0.0828 ± 0.4 | 0.381 ± 0.16
SAGGSAGGSAGGSSIRIWIFFPGYFFRITIKPDPGNPNMIKIDITEIIPPDQMDDEDLISAGGSAGGSAGGS [r4_316_TrROS] | 3.53 ± 0.26 | 4.38 ± 0.14 | 4.38 ± 0.3
SAGGSAGGSAGGSSMSISVLEVRELPNGTLEITTVDYNPDNGYTTTTTYTLPPGQPLLISAGGSAGGSAGGS [r4_133_JUSTAS] | 1.8 ± 0.053 | 1.62 ± 0.045 | 1.74 ± 0.068
SAGGSAGGSAGGSSSIYYDPRYPNVAVNPETGEAVTGIPLEELEKLGATPVGPDWVRIDSAGGSAGGSAGGS [r4_306_TrMRF] | -0.659 ± 0.15 | 0.196 ± 0.061 | -0.0656 ± 0.13
SAGGSAGGSAGGSSSSASVEVKTETSVSYDPSTGRTYTTTTSKYPLTNTTVTTTTTDPTSAGGSAGGSAGGS [r10_187_JUSTAS] | 0.955 ± 0.03 | 0.139 ± 0.15 | 0.621 ± 0.17
SAGGSAGGSAGGSSTAVIRRPETGEEHTFDLPEDATEEDIRARLEAAGFPPGSEIVEIVESAGGSAGGSAGG [r7_70_JUSTAS] | 1.21 ± 0.067 | 1.91 ± 0.048 | 1.66 ± 0.035
SAGGSAGGSAGGSSVKLTLPDGSQVTVDIHPDGTATVTTFPGDTPSVTNMPVSAFQAALPSAGGSAGGSAGG [r7_178_JUSTAS] | 1.72 ± 0.44 | 1.79 ± 0.21 | 2.08 ± 0.53
SAGGSAGGSAGGSTILILDPETKKLYLIRIEKREDGKEELKLKVYEFDLKTGEMKEYELSAGGSAGGSAGGS [r10_1041_TrROS_Hall] | 3.25 ± 0.2 | 4.68 ± 0.19 | 4.15 ± 0.19
SAGGSAGGSAGGSTITLRIEGLSKEEIEELARKLGAKVVSFDEKNKTVTIELPPGAKLLSAGGSAGGSAGGS [r4_3_TrROS_Hall] | 1.88 ± 0.054 | 2.19 ± 0.044 | 2.09 ± 0.084
SAGGSAGGSAGGSTPSFTPVLELEFEFENDVVVRVRLYRLPDEDTYLLEVEVAPDSLKDSAGGSAGGSAGGS [r4_163_TrMRF] | 2.88 ± 0.093 | 4.11 ± 0.1 | 3.62 ± 0.13
SAGGSAGGSAGGSVIEVKDPNGKKYIIIKTPDPNVYPVTVIPPDGTTTVTPVSDYSKLLSSAGGSAGGSAGG [r7_769_JUSTAS] | -0.893 ± 0.4 | -0.464 ± 0.56 | -0.527 ± 0.42
SAGGSAGGSAGGSVSELPPISTKTTTTVTTTSDGTKVVYTTTTYSDGTTTTTSGPVPAASAGGSAGGSAGGS [r10_682_JUSTAS] | 0.565 ± 0.049 | 1.14 ± 0.067 | 1.09 ± 0.13
SAGGSAGGSAGGSVSSVSTTSSPVVDPETGPASTVTTHSVPGGPATTVVMTPDSTTTTGSAGGSAGGSAGGS [r10_384_JUSTAS] | 1.92 ± 0.081 | 1.43 ± 0.038 | 1.59 ± 0.074
SAGGSAGGSAGGSVSVNIPLEELKERVPPSLSVSVSPTPVPEGGGVRVPVTLTSPAELGSAGGSAGGSAGGS [r4_119_JUSTAS] | 1 ± 0.031 | 0.471 ± 0.025 | 0.763 ± 0.041

Sequence | folding stability dG unfold [1] [kcal/mol] | folding stability dG unfold [2] [kcal/mol] | folding stability dG unfold [3] [kcal/mol]
SAGGSAGGSAGGSVYIDPDKGYLVMWNEEDGYIVKYPIDPPNKIPSVDIEPIPPGDPLFSAGGSAGGSAGGS [r4_409_TrROS] | 1.51 ± 0.074 | 1.13 ± 0.07 | 1.26 ± 0.11
SAGGSAGGSAGGSWLVRIPGHPIIFKGPEDQAEGIARELQKNGKPIEIEIIDPDEMKKFSAGGSAGGSAGGS [r4_131_TrROS] | 0.286 ± 0.12 | 1.12 ± 0.14 | 0.643 ± 0.23
SAGGSAGGSAGGSYTVSEIPEEGLVLKTLPNGVVTRYKVSPDGSLEEIATFEPGNGVLIKSAGGSAGGSAGG [r7_659_JUSTAS] | -0.0116 ± 0.3 | 1.1 ± 0.096 | 0.766 ± 0.11
SAGGSAGGSAGGTAEAVRKLAEEFSQQHGMPIKDVEVQRPPNKWKPVIRYPDNGKWIEISAGGSAGGSAGGS [r10_161_TrROS] | 0.298 ± 0.086 | 0.465 ± 0.13 | 0.388 ± 0.2
SAGGSAGGSAGGTAEEIKEAIEELGYKVEVEVTDDAVKIRLELPNGEKFEFEIPKEALESAGGSAGGSAGGS [r10_1029_TrMRF] | 2.3 ± 0.22 | 1.92 ± 0.11 | 1.99 ± 0.16
SAGGSAGGSAGGTAEIYFPNFPIRIDSVQLSPEKNHVQVSMENPDGPPVKGTMPPKDGILSAGGSAGGSAGG [r7_427_TrROS] | 1.58 ± 0.031 | -0.127 ± 0.027 | 0.903 ± 0.042
SAGGSAGGSAGGTITLPGGAEVTEVERLPGGVLKITGVLTLPGGPVTVEVTLPVTPELLESAGGSAGGSAGG [r7_38_JUSTAS] | 0.772 ± 0.034 | 1.03 ± 0.049 | 1.03 ± 0.099
SAGGSAGGSAGGTKTYTITNEDGSKITIEEVDGKYVITYPNGEKKEIEGMTLEELLKALSAGGSAGGSAGGS [r10_569_TrROS_Hall] | 4.22 ± 0.58 | 4.26 ± 0.21 | 4.35 ± 0.18
SAGGSAGGSAGGTPIAETEVSEDPATGKLITTSKSPTDPKVYVTTTDLATGVPTTTPLLSAGGSAGGSAGGS [r10_1034_JUSTAS] | 0.761 ± 0.031 | 0.213 ± 0.047 | 0.524 ± 0.064
SAGGSAGGSAGGVDPTPDGILRVRVVIKDPNGDVFSEKEVEMTPEELEALKKAGYVILESAGGSAGGSAGGS [r10_749_JUSTAS] | 1.43 ± 0.033 | 2.022 ± 0.018 | 1.82 ± 0.054
SAGGSAGGSAGGVIVLKSDNSVIIITKKVYTENGKPKKTIIEKKNLKKKPPKPLSIEIISAGGSAGGSAGGS [r10_1043_JUSTAS] | 0.77 ± 0.067 | 0.374 ± 0.27 | 0.681 ± 0.15
SAGGSAGGSAGGVKYLTLTLPDGTVIKVPVDEPVEIRGEDGRPVEIVEAKVTEGPPGLGSAGGSAGGSAGGS [r10_20_JUSTAS] | 0.963 ± 0.042 | 2.326 ± 0.021 | 1.94 ± 0.072
SAGGSAGGSAGGVPEDVIMSPVSTTLVEKEVLSTEVTPEGAPKTVEKVLIVEKTLEPLLSAGGSAGGSAGGS [r10_758_JUSTAS] | 0.0499 ± 0.05 | -0.853 ± 0.24 | -0.429 ± 0.29
SAGGSAGGSAGGVPPGAPELRLKVTVTVTTVELDEDTNELTTTTETVTVEVTVKVGETLSAGGSAGGSAGGS [r10_133_TrROS_Hall] | 0.616 ± 0.11 | 1.17 ± 0.09 | 1.2 ± 0.18
SAGGSAGGSAGGVPRLERFTLSPNGLPVRIFVDGDRALVVFEGPDGGLAVATFAVSDIPFSAGGSAGGSAGG [r7_653_TrMRF] | 0.857 ± 0.03 | 1.62 ± 0.047 | 1.31 ± 0.064
SAGGSAGGSAGGVSPEANIKEVSKDPKTGLTTSLAKDPNSDNEITITKDSSGNSSINISSAGGSAGGSAGGS [r10_450_JUSTAS] | 0.121 ± 0.038 | 1.08 ± 0.029 | 0.813 ± 0.073
SAGGSAGGSAGGWIFIIEIDPDNGEIKINWPNGNSIKIPPEDLDNMPIEIKPIPPPPNDKSAGGSAGGSAGG [r7_99_TrROS] | 1.83 ± 0.19 | 1.88 ± 0.097 | 1.87 ± 0.28
SAGGSAGGSAGGWVIRVTIKHPNGKKRTIMIPMPPDNIEEVAKNLMPQGYEIKEPEIFPGSAGGSAGGSAGG [r7_159_TrROS] | 0.295 ± 0.12 | 0.902 ± 0.36 | 0.813 ± 0.26
